# Assay results from PMC1475753.
# T1: φ29 DNA polymerase K538A (bacteriophage φ29, UniProt P03680 1-575, K538A)
# T1 sequence: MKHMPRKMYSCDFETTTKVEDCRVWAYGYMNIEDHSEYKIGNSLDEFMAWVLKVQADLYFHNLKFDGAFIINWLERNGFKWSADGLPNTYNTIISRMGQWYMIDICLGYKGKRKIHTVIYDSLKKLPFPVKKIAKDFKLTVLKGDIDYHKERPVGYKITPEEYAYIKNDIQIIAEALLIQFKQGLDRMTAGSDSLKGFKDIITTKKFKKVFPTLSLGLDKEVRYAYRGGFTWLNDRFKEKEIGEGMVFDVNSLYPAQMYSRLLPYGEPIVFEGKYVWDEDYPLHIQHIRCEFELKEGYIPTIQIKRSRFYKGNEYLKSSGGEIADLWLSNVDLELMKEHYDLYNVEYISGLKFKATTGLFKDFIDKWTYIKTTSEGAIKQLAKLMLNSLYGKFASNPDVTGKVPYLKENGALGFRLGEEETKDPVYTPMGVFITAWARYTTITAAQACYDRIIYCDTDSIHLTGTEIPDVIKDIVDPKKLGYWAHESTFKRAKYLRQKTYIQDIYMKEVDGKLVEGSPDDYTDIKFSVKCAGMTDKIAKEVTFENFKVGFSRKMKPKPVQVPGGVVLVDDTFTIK
# T2: φ29 DNA polymerase T573A (bacteriophage φ29, UniProt P03680 1-575, T573A)
# T2 sequence: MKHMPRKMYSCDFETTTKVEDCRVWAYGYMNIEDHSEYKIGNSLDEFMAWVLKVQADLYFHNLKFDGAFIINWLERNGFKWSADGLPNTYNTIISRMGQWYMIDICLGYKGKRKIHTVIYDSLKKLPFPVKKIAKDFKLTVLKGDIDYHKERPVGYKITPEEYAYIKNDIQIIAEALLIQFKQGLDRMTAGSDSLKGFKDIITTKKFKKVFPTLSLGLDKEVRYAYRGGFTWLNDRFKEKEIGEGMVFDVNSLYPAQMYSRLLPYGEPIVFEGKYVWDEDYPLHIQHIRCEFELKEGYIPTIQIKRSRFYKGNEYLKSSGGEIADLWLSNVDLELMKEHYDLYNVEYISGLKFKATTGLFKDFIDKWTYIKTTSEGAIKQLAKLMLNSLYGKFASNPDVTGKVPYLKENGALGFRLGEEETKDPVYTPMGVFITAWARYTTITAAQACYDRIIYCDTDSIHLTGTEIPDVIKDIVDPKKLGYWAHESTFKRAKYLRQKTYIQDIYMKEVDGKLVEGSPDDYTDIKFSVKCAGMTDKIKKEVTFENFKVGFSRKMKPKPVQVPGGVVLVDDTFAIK
# Tests used:
# [1] = molecular target: T1, φ29 DNA polymerase K538A; assay: EMSA
# [2] = molecular target: T2, φ29 DNA polymerase T573A; assay: EMSA
binder,measurement,setting,value
sp1/sp1c+6 (15/21mer) (dsDNA) DNA 1: GATCACAGTGAGTAC DNA 2: TCTATTGTACTCACTGTGATC,binding result,[1],no binding
same,binding result,[2],no binding
